As a reminder, the Kd is the constant that tells how readily two partners part at equilibrium. A high value points to a looser complex.

This assay has as its target HLA-A2-G9-209 complex (as used for the affinity of 9H) (human, UniProt P61769 21-119; P40967 209-217). Description: method not stated (data not shown).

B1: 9H scFv antibody (scFv)
scFv: EVQLLESGGGLVQPGGSLRLSCAASGFTFQYYAMSWVRQAPGKGLEWVSSINWNSGTLDYADSVKGRFTISRDNSKNTLYLQMNSLRAEDTAVYYCARYSNYGLYAMDVWGQGTLVTVSSSGGGGSGGGGSGGGGSSDIVLTQPPSASGTPGQRVTISCSGSSSNIGSNPVTWYQQLPGTAPKPLIYGDSYRPSGVPDRFSGSKSGTSASLAISGLRSEDEADYYCATWDDDVNGVIFGGGTQLTVLR
notes: also called scFv 9H; clone 9H
Molecule B1 yielded a Kd of 0.5 nM.

These data come from US20100062001A1 (TECHNION RESEARCH AND DEVELOPMENT, published 2010).
